According to patent US20140030731:

B1: endogenous human ROCKII, Ser^1366 phosphorylated (HEK-293T cell extracts; human breast tumor tissue) (protein)
chain: MSRPPPTGKMPGAPETAPGDGAGASRQRKLEALIRDPRSPINVESLLDGLNSLVLDLDFPALRKNKNIDNFLNRYEKIVKKIRGLQMKAEDYDVVKVIGRGAFGEVQLVRHKASQKVYAMKLLSKFEMIKRSDSAFFWEERDIMAFANSPWVVQLFYAFQDDRYLYMVMEYMPGGDLVNLMSNYDVPEKWAKFYTAEVVLALDAIHSMGLIHRDVKPDNMLLDKHGHLKLADFGTCMKMDETGMVHCDTAVGTPDYISPEVLKSQGGDGFYGRECDWWSVGVFLYEMLVGDTPFYADSLVGTYSKIMDHKNSLCFPEDAEISKHAKNLICAFLTDREVRLGRNGVEEIRQHPFFKNDQWHWDNIRETAAPVVPELSSDIDSSNFDDIEDDKGDVETFPIPKAFVGNQLPFIGFTYYRENLLLSDSPSCRETDSIQSRKNEESQEIQKKLYTLEEHLSNEMQAKEELEQKCKSVNTRLEKTAKELEEEITLRKSVESALRQLEREKALLQHKNAEYQRKADHEADKKRNLENDVNSLKDQLEDLKKRNQNSQISTEKVNQLQRQLDETNALLRTESDTAARLRKTQAESSKQIQQLESNNRDLQDKNCLLETAKLKLEKEFINLQSALESERRDRTHGSEIINDLQGRICGLEEDLKNGKILLAKVELEKRQLQERFTDLEKEKSNMEIDMTYQLKVIQQSLEQEEAEHKATKARLADKNKIYESIEEAKSEAMKEMEKKLLEERTLKQKVENLLLEAEKRCSLLDCDLKQSQQKINELLKQKDVLNEDVRNLTLKIEQETQKRCLTQNDLKMQTQQVNTLKMSEKQLKQENNHLMEMKMNLEKQNAELRKERQDADGQMKELQDQLEAEQYFSTLYKTQVRELKEECEEKTKLGKELQQKKQELQDERDSLAAQLEITLTKADSEQLARSIAEEQYSDLEKEKIMKELEIKEMMARHKQELTEKDATIASLEETNRTLTSDVANLANEKEELNNKLKDVQEQLSRLKDEEISAAAIKAQFEKQLLTERTLKTQAVNKLAEIMNRKEPVKRGNDTDVRRKEKENRKLHMELKSEREKLTQQMIKYQKELNEMQAQIAEESQIRIELQMTLDSKDSDIEQLRSQLQALHIGLDSSSIGSGPGDAEADDGFPESRLEGWLSLPVRNNTKKFGWVKKYVIVSSKKILFYDSEQDKEQSNPYMVLDIDKLFHVRPVTQTDVYRADAKEIPRIFQILYANEGESKKEQEFPVEPVGEKSNYICHKGHEFIPTLYHFPTNCEACMKPLWHMFKPPPALECRRCHIKCHKDHMDKKEEIIAPCKVYYDISTAKNLLLLANSTEEQQKWVSRLVKKIPKKPPAPDPFARSSPRTSMKIQQNQSIRRPSRQLAPNKPS
B2: endogenous human ROCKI, Ser^1333 phosphorylated (HEK-293T cell extracts) (protein)
chain: STGDSFETRFEKMDNLLRDPKSEVNSDCLLDGLDALVYDLDFPALRKNKNIDNFLSRYKDTINKIRDLRMKAEDYEVVKVIGRGAFGEVQLVRHKSTRKVYAMKLLSKFEMIKRSDSAFFWEERDIMAFANSPWVVQLFYAFQDDRYLYMVMEYMPGGDLVNLMSNYDVPEKWARFYTAEVVLALDAIHSMGFIHRDVKPDNMLLDKSGHLKLADFGTCMKMNKEGMVRCDTAVGTPDYISPEVLKSQGGDGYYGRECDWWSVGVFLYEMLVGDTPFYADSLVGTYSKIMNHKNSLTFPDDNDISKEAKNLICAFLTDREVRLGRNGVEEIKRHLFFKNDQWAWETLRDTVAPVVPDLSSDIDTSNFDDLEEDKGEEETFPIPKAFVGNQLPFVGFTYYSNRRYLSSANPNDNRTSSNADKSLQESLQKTIYKLEEQLHNEMQLKDEMEQKCRTSNIKLDKIMKELDEEGNQRRNLESTVSQIEKEKMLLQHRINEYQRKAEQENEKRRNVENEVSTLKDQLEDLKKVSQNSQLANEKLSQLQKQLEEANDLLRTESDTAVRLRKSHTEMSKSISQLESLNRELQERNRILENSKSQTDKDYYQLQAILEAERRDRGHDSEMIGDLQARITSLQEEVKHLKHNLEKVEGERKEAQDMLNHSEKEKNNLEIDLNYKLKSLQQRLEQEVNEHKVTKARLTDKHQSIEEAKSVAMCEMEKKLKEEREAREKAENRVVQIEKQCSMLDVDLKQSQQKLEHLTGNKERMEDEVKNLTLQLEQESNKRLLLQNELKTQAFEADNLKGLEKQMKQEINTLLEAKRLLEFELAQLTKQYRGNEGQMRELQDQLEAEQYFSTLYKTQVKELKEEIEEKNRENLKKIQELQNEKETLATQLDLAETKAESEQLARGLLEEQYFELTQESKKAASRNRQEITDKDHTVSRLEEANSMLTKDIEILRRENEELTEKMKKAEEEYKLEKEEEISNLKAAFEKNINTERTLKTQAVNKLAEIMNRKDFKIDRKKANTQDLRKKEKENRKLQLELNQEREKFNQMVVKHQKELNDMQAQLVEECAHRNELQMQLASKESDIEQLRAKLLDLSDSTSVASFPSADETDGNLPESRIEGWLSVPNRGNIKRYGWKKQYVVVSSKKILFYNDEQDKEQSNPSMVLDIDKLFHVRPVTQGDVYRAETEEIPKIFQILYANEGECRKDVEMEPVQQAEKTNFQNHKGHEFIPTLYHFPANCDACAKPLWHVFKPPPALECRRCHVKCHRDHLDKKEDLICPCKVSYDVTSARDMLLLACSQDEQKKWVTHLVKKIPKNPPSGFVRASPRTLSTRSTANQSFRKVVKNTSGKTS

Experiments:
[1] = target: GFP-RhoAV14E40L (constitutively active mutant of RhoA defective in its interaction with ROCK), P61586
[2] = target: constitutively active GFP-RhoAV14, P61586
constitutively active GFP-RhoAV14, P61586, sequence (P61586 other isoform, or with tags, fused parts or gaps): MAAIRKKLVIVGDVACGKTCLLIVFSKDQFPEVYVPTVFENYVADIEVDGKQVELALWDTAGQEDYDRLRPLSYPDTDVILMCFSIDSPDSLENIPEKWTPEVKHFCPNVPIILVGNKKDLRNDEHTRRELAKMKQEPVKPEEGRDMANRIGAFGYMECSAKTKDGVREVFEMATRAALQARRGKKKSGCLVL

GFP-RhoAV14E40L (constitutively active mutant of RhoA defective in its interaction with ROCK), P61586, sequence (P61586 other isoform, or with tags, fused parts or gaps mutant): as the sequence (P61586 other isoform, or with tags, fused parts or gaps) above, with E40L counted along it

Protein	level of ROCKII Ser^1366 phosphorylation (Western blotting with antibody-II, HEK-293T extracts) [1]	level of ROCK Ser^1366 phosphorylation (Western blotting with antibody-II, HEK-293T extracts) [2]	level of ROCKI Ser^1333 phosphorylation (Western blotting with antibody-I, HEK-293T extracts) [2]
B1	neither GFP-RhoAV14E40L nor GFP-RhoAN19 transfection shows no the enhancement of RCOKII Ser^1366 phosphorylation	the level of ROCK Ser^1366 phosphorylation in the GFP-RhoAV14 expression cells was enhanced	
B2			the changes on the level of ROCKI Ser^1333 phosphorylaion also indeed enhanced due to RhoA activation
